{"source": "patent US9758785B2", "about": "“miR-520 microRNAs sensitize cancers to platinum-based therapy” (BAYLOR COLLEGE OF MEDICINE, priority 2012, dated 2017)", "key": {"[1]": {"test_system": "ovarian cancer cell lines", "experiment": "Cisplatin IC50 in multiple ovarian cancer cell lines", "assay_type": "cell-based, human", "details": "OVCAR8 and SKOV3ip1 cells, p<0.001", "experimental": "(§1) Established ovarian cancer cell lines were obtained from the ATCC (OVCAR8, OVCAR5) and the University of Texas M.D. Anderson Cancer Center (HEYA8, SKOV3ip1). All cell lines were maintained at 37° C. in RPMI 1640 media (Invitrogen, Carlsbad, Calif.) supplemented with 10% fetal bovine serums (Hyclone, Logan, Utah) and 1% penicillin/streptomycin (Gibco, Carlsbad, Calif.). MicroRNA mimics and mimic controls (Dharmacon, Lafayette, Colo.) were transiently transfected into actively growing cultures using Lipofectamine 2000 (Invitrogen, Carlsbad, Calif.). After a 24-hour incubation, transfected cultures were washed, passaged and seeded into 96 well plates. Proliferation and apoptosis were measured at 72, 96 and 120 hours after transfection using standard assays (Cell Titer 96 Aqueous One; Caspase Glo 3/7; Promega, Madison, Wis.). pLemiR expression vectors (Open Biosystems/Thermo, Huntsville, Ala.) were prepared according to manufacturer's instructions and transfected into cells using Fugene 6 (Roche, Indianapolis, Ind.). Following transfection, stable clones were selected using puromycin (Invitrogen) at doses optimized for each line. […] Viability was assessed across a clinically relevant range of cisplatin concentrations using an MTS assay (Promega). […]"}, "OVCAR8 cells [2]": {"test_system": "OVCAR8 cells", "experiment": "Proliferation assay (MTS, Cell Titer 96 Aqueous One)", "assay_type": "cell-based, human", "details": "for Proliferation: no cisplatin", "experimental": "(§2) Established ovarian cancer cell lines were obtained from the ATCC (OVCAR8, OVCAR5) and the University of Texas M.D. Anderson Cancer Center (HEYA8, SKOV3ip1). All cell lines were maintained at 37° C. in RPMI 1640 media (Invitrogen, Carlsbad, Calif.) supplemented with 10% fetal bovine serums (Hyclone, Logan, Utah) and 1% penicillin/streptomycin (Gibco, Carlsbad, Calif.). MicroRNA mimics and mimic controls (Dharmacon, Lafayette, Colo.) were transiently transfected into actively growing cultures using Lipofectamine 2000 (Invitrogen, Carlsbad, Calif.). After a 24-hour incubation, transfected cultures were washed, passaged and seeded into 96 well plates. Proliferation and apoptosis were measured at 72, 96 and 120 hours after transfection using standard assays (Cell Titer 96 Aqueous One; Caspase Glo 3/7; Promega, Madison, Wis.). pLemiR expression vectors (Open Biosystems/Thermo, Huntsville, Ala.) were prepared according to manufacturer's instructions and transfected into cells using Fugene 6 (Roche, Indianapolis, Ind.). Following transfection, stable clones were selected using puromycin (Invitrogen) at doses optimized for each line. Rates of proliferation and apoptosis were examined in stable transfectants 24, 48, 72 and 96 hours after selected cells had been passaged and dispensed into 96 well plates. Viability was assessed across a clinically relevant range of cisplatin concentrations using an MTS assay (Promega). Cisplatin was obtained from Teva Pharmaceuticals (Irvine, Calif.)."}, "HEY cells": {"test_system": "HEY cells", "experiment": "Apoptosis assay (Caspase Glo 3/7)", "assay_type": "cell-based, human", "details": "mimic transfection", "experimental": "as §2"}, "HEYA8 cells": {"test_system": "HEYA8 cells", "experiment": "Apoptosis assay (Caspase Glo 3/7)", "assay_type": "cell-based, human", "details": "HEYA8, acute mimic transfection", "experimental": "as §2"}, "OVCAR5": {"test_system": "OVCAR5", "experiment": "Apoptosis assay (Caspase Glo 3/7)", "assay_type": "cell-based, human", "details": "OVCAR5, mimic transfection", "experimental": "as §2"}, "OVCAR8 cells [3]": {"test_system": "OVCAR8 cells", "experiment": "Apoptosis assay (Caspase Glo 3/7)", "assay_type": "cell-based, human", "experimental": "as §2"}, "SKOV3ip1 cells": {"test_system": "SKOV3ip1 cells", "experiment": "Apoptosis assay (Caspase Glo 3/7)", "assay_type": "cell-based, human", "experimental": "as §2"}, "[4]": {"test_system": "established ovarian cancer cell lines", "experiment": "Proliferation or apoptosis in established ovarian cancer cell lines after mimic transfection", "assay_type": "cell-based, human", "details": "mimics vs control cultures; cell lines SKOV4, HEY, OVCAR8, OVCAR5", "experimental": "as §1"}, "ATM transcript": {"test_system": "ATM transcript", "experiment": "qPCR of ATM transcript in OVCAR8 cells", "assay_type": "cell-based, human", "details": "OVCAR8, qPCR vs non-silencing control, baseline without cisplatin", "experimental": "Total RNA was extracted from cell pellets using the mirVana miRNA extraction kit (Ambion, Austin, Tex.) according to the manufacturer's instructions. Levels of microRNA expression were examined using Mature MicroRNA Taqman assays (Applied Biosystems, Foster City, Calif.) using U6 as a control. For all gene expression assays, cDNA was prepared using qScript cDNA supermix (Quanta Biosciences, Gaithersburg, Md.). TaqMan gene expression assays (Applied Biosystems) were used to measure expression of specific target genes according to the manufacturer's instructions. All reactions were performed in triplicate using OneStepPlus real time PCR system (Applied Biosystems). All qPCR results are reported using the ΔΔCT method (17)."}, "phopho-CHK2 (T68)": {"test_system": "phopho-CHK2 (T68)", "experiment": "Western blot of phospho-CHK2 in OVCAR8 cells", "assay_type": "cell-based, human", "details": "OVCAR8 with cisplatin", "experimental": "Whole cell lysates equivalent to 30 μg of protein were resolved on 4-12% gradient SDS-PAGE. Resolved proteins were transferred onto PVDF membranes using the iBlot system (Invitrogen). Rabbit polyclonal and/or mouse monoclonal antibodies specifically recognizing ATM, phospo-ATM (Ser1981) CHK1 phospho-CHK1 (Ser216), p21, phospo-CHK2 ([…]), BCL2, XIAP, CDC25A were obtained from Cell Signaling Technologies (Danvers, Mass.). A rabbit polyclonal antibody recognizing FANCD2 was also purchased from Abcam (Cambridge, Mass.). Protein expression was visualized using species-specific, horseradish peroxidase-conjugated secondary antibody (Cell Signaling) and ECL Plus chemiluminescent substrate (Amersham, Buckinghamshire, UK)."}, "OVCAR8 xenografts [5]": {"test_system": "OVCAR8 xenografts", "experiment": "Intraperitoneal ovarian cancer xenograft growth and metastasis", "assay_type": "in vivo, mice", "details": "for Total intraperitoneal tumor burden: between the three groups", "experimental": "Permission to perform animal experiments was obtained from the Institutional Animal Care and Use Committee (IACUC) for Baylor College of Medicine. Eight-week female athymic (Foxn1^nu/nu) mice were purchased from the National Cancer Institute-Charles River and maintained on a standard diet ad lib. Each animal was inoculated intraperitoneally with 2.5×10^6 cells stably transfected with vector driving miR-520h, a non-targeting miRNA control or empty vector. Expression of miR-520h was measured in cell lines using Taqman assays immediately prior to inoculation. Tumor xenografts were followed weekly for tumor progression or regression using the Image Station In-Vivo FX system (Kodak Molecular Imaging Systems, New Haven, Conn.) using endogenous RFP encoded by the pLemiR vector as a tag. At each time point, mice were anesthetized with isoflurane and placed in an imaging chamber, after which, fluorescent intensity images with x-ray overlay were obtained and analyzed. At the completion of the study, mice were euthanized after sedation under isoflurane (Abbott Laboratories, North Chicago, Ill.). For experiments involving treatment, cisplatin was administered at 5 mg/kg to mice by tail vein injection weekly for 4 weeks, after which, 1.5 mg/kg was administered biweekly. Tumor volume and distribution for all animals in each experiment were documented and correlated with imaging results.\nThe in vitro observations indicate that miR520g/h and/or miR-520a alter the proliferations of established ovarian cancer cell lines and in some embodiments are reasonably expected to promote their growth and metastasis in vivo. The inventors utilized xenograft models to characterize this embodiment. Foxn1^nu/nu mice were implanted subcutaneously or intraperitoneally with 2.5 million cells stably transfected with miR-520g/h, non-silencing microRNA control or empty vector alone. […] This difference was documented not only when tumor burden was measured according to the number and size of RFP active tumors that met imaging thresholds, but could also directly measured at necropsy (FIG. 5F). […]"}, "OVCAR8 xenografts [6]": {"test_system": "OVCAR8 xenografts", "experiment": "Subcutaneous ovarian cancer xenograft", "assay_type": "in vivo, mice", "details": "subcutaneous inoculation vs non-targeting control or empty vector"}}, "note": "Entries after “also recorded” stand apart in the source; their conditions may differ.", "data": [{"molecule": "hsa-mir-520h MI0003175 (nucleic acid, listed as Homo sapiens, expressed or natural sequence, synthetic mimic or stably expressed from pLemiR vector; written miR-520g/h interchangeably) UCCCAUGCUGUGACCCUCUAGAGGAAGCACUUUCUGUUUGUUGUCUGAGAAAAAACAAAGUGCUUCCCUUUAGAGUUACUGUUUGGGA", "values": [{"measurement": "Reduction of IC50 for cisplatin", "setting": "[1]", "result": "≤ 4", "unit": "fold"}, {"measurement": "Proliferation", "setting": "OVCAR8 cells [2]; OVCAR8, transient/acute mimic transfection vs non-silencing control", "result": "significantly reduced"}, {"measurement": "Proliferation", "setting": "OVCAR8 cells [2]; OVCAR8, transient/acute mimic transfection vs non-silencing control, listed as Mir-520g/h", "result": "significantly increased"}, {"measurement": "Proliferation", "setting": "OVCAR8 cells [2]; OVCAR8 clones stably expressing the microRNA", "result": "enhanced the proliferation"}, {"measurement": "Increase in proliferation", "setting": "OVCAR8 cells [2]; mimic, transient, 96 hours following transfection, vs non-silencing control", "result": 19, "unit": "%"}, {"measurement": "Apoptosis", "setting": "HEY cells", "result": "no impact"}, {"measurement": "Apoptosis", "setting": "HEYA8 cells", "result": "increase rates of apoptosis"}, {"measurement": "Apoptosis", "setting": "OVCAR5", "result": "no impact"}, {"measurement": "Caspase 3/7 expression", "setting": "OVCAR8 cells [3]; OVCAR8 clones stably expressing the microRNA, no cisplatin", "result": "inhibited"}, {"measurement": "Apoptosis in presence of cisplatin", "setting": "OVCAR8 cells [3]; OVCAR8 stable clones, cisplatin up to 10 μg/mL, listed as miR-520g/h", "result": "significantly decreased; also recorded: significantly lower rates of apoptosis"}, {"measurement": "Apoptosis (caspase 3/7)", "setting": "SKOV3ip1 cells; SKOV3ip1, acute mimic transfection, no cisplatin", "result": "decreasing apoptosis"}, {"measurement": "Caspase 3/7 expression", "setting": "SKOV3ip1 cells; SKOV3ip1 clones stably expressing the microRNA, no cisplatin", "result": "inhibited"}, {"measurement": "Apoptosis in presence of cisplatin", "setting": "SKOV3ip1 cells; SKOV3ip1 stable clones, cisplatin treatment", "result": "significantly increased"}, {"measurement": "Impact on proliferation or apoptosis", "setting": "[4]", "result": "significantly impacted"}, {"measurement": "ATM transcript level", "setting": "ATM transcript", "result": "paradoxically higher"}, {"measurement": "ATM transcript level", "setting": "ATM transcript; listed as miR-520g/h", "result": "actually higher"}, {"measurement": "phospho-CHK2 (T68) level", "setting": "phopho-CHK2 (T68)", "result": "increased levels"}, {"measurement": "Number and size of intraperitoneal implants", "setting": "OVCAR8 xenografts [5]; OVCAR8 cells stably expressing the microRNA, intraperitoneal, no cisplatin, vs non-silencing control or empty vector, listed as miR-520g/h", "result": "larger number of smaller xenografts; also recorded: large number of smaller implants"}, {"measurement": "Total intraperitoneal tumor burden", "setting": "OVCAR8 xenografts [5]", "result": "did not differ significantly"}, {"measurement": "Total intraperitoneal tumor burden", "setting": "OVCAR8 xenografts [5]; listed as miR-520g/h", "result": "did not differ"}, {"measurement": "Implant size total tumor burden", "setting": "OVCAR8 xenografts [6]", "result": "significantly smaller"}]}]}
